Columns and labels:
[1] = Single-ascending dose study in healthy participants: plasma pharmacokinetics after single SC or IV dose; parameters: species or system human; conditions: in vivo
Source text: A multiple-center, investigator- and participant-blind, randomized, placebo-controlled, single-ascending dose study is designed to evaluate the safety and tolerability of a single subcutaneous (SC) dose or an intravenous (IV) dose of the NRG4 compound of SEQ ID NO:1 in healthy participants. Cohorts 1-5 are intended to receive a single SC dose of the NRG4 compound or placebo. Cohort 6 is used to assess a single IV injection of the NRG4 compound. This cohort is to enable an estimation of absolute bioavailability of the NRG4 compound. Doses for the cohorts are as follows: • Cohort 1:1 mg (6 participants NRG4 compound; 2 participants placebo)· • Cohort 2:3 mg (6 participants NRG4 compound; 2 participants placebo). • Cohort 3:10 mg (6 participants NRG4 compound; 2 participants placebo). • Cohort 4:30 mg (6 participants NRG4 compound; 2 participants placebo). • Cohort 5:60 mg (6 participants NRG4 compound; 2 participants placebo). • Cohort 6 (8 participants 3 mg NRG4 compound IV) 48 participants received a dose of NRG4 compound or placebo, with eight males, and 40 females. The age range of the participants was 25 to 65 years. A stable dose of antihypertensive medication, with the exception of beta blockers, and lipid lowering medication were allowed. The study intervention was administered either via a single SC injection into the lower abdominal region or as an IV bolus from a syringe to an indwelling venous catheter. Study interventions administered are summarized in Table 2: On Day 1, participants receive a single dose of their assigned treatment (either NRG4 compound or placebo) for first 5 cohorts and NRG4 compound for the final IV cohort. PK sampling and safety assessments, including AEs, medical assessments, clinical laboratory tests, vital signs, and ECGs, were performed at predefined times through discharge from the CRU on Day 4. Dose escalated cohorts were only initiated after satisfactory review of the safety results from all participants receiving NRG4 compound in the preceding cohort through Day 4. Participants returned to the CRU for outpatient visits on Days 7 and 15 for PK, safety, and immunogenicity assessments, as appropriate. Follow-up visit for PK, safety, and immunogenicity monitoring occurred on Day 29. At the visits and times specified in the protocol venous blood samples of approximately 3 mL each were collected to determine the plasma concentrations of NRG4 compound. PK parameter estimates for NRG4 compound were calculated by standard noncompartmental methods of analysis using Phoenix WinNonlin Version 8.1. […] The PK parameters were summarized and listed separately for SC and IV-dosed cohorts. The plasma concentrations of the NRG4 compound were plotted and summarized. The dose proportionality for SC doses of NRG4 compound were assessed for the log-transformed Cmax, AUC (0-∞), and AUC (0-tlast) using a power model (where log-dose acted as an explanatory variable) to estimate ratios of dose normalized geometric means and corresponding 90% CIs. The estimated ratio of dose-normalized geometric means of PK parameters between the highest and lowest doses were used to assess dose proportionality.

[2] = Single-ascending dose study in healthy participants: safety and tolerability; format: in vivo
Source text: A multiple-center, investigator- and participant-blind, randomized, placebo-controlled, single-ascending dose study is designed to evaluate the safety and tolerability of a single subcutaneous (SC) dose or an intravenous (IV) dose of the NRG4 compound of SEQ ID NO:1 in healthy participants. Cohorts 1-5 are intended to receive a single SC dose of the NRG4 compound or placebo. Cohort 6 is used to assess a single IV injection of the NRG4 compound. This cohort is to enable an estimation of absolute bioavailability of the NRG4 compound. Doses for the cohorts are as follows: • Cohort 1:1 mg (6 participants NRG4 compound; 2 participants placebo)· • Cohort 2:3 mg (6 participants NRG4 compound; 2 participants placebo). • Cohort 3:10 mg (6 participants NRG4 compound; 2 participants placebo). • Cohort 4:30 mg (6 participants NRG4 compound; 2 participants placebo). • Cohort 5:60 mg (6 participants NRG4 compound; 2 participants placebo). • Cohort 6 (8 participants 3 mg NRG4 compound IV)
48 participants received a dose of NRG4 compound or placebo, with eight males, and 40 females. The age range of the participants was 25 to 65 years. A stable dose of antihypertensive medication, with the exception of beta blockers, and lipid lowering medication were allowed. […]

[3] = Rat continuous SC infusion toxicology study; format: in vivo
Method: (§1) Table 3 presents the estimated margins of safety of 21 mg/day infused for 24 hours and 140 mg/day infused for 96 hours doses of NRG4 compound. The anticipated therapeutic benefit for patients with HFrEF outweighs any potential risks identified in the nonclinical safety profile.

[4] = Cynomolgus continuous SC infusion toxicology study; format: in vivo, cynomolgus monkey
Method: as §1

[5] = rat non-repro NOAEL (F), 16.1 mg/kg/day, 96 h SC infusion
[6] = rat, in vivo, sc, 1.6 mg/kg/day
[7] = cynomolgus monkey, in vivo, sc, 156 mg/kg/day
[8] = monkey NOAEL (M + F), 12.6 mg/kg/day, 96 h SC infusion

Substance: NRG4 compound: NRG4 compound comprising amino acid sequence SEQ ID NO:1: GGGGSGHEEPCGPSHKSFCLNGGLCYQIPTIPSPFCRCVENYTGARCEKVEL; selective HER4 binding (GGGGSGHEEPCGPSHKSFCLNGGLCYQIPTIPSPFCRCVENYTGARCEKVFL)
- geometric mean F (absolute bioavailability) [1]: 104%
- geometric mean CL ([1]; iv): 6.01 L/h
- geometric mean Vss ([1]; iv): 13.6 L
- geometric mean Vz ([1]; iv): 22.0 L
- geometric mean t1/2 ([1]; iv): 2.53 h
- dose proportionality of AUC (0-0) ([1]; sc): slightly higher than proportional
- dose proportionality of Cmax ([1]; sc): slightly less than proportional
- dose proportionality of PK ([1]; sc): increase approximately proportionally
- geometric mean CL/F ([1]; sc): 4.88 to 6.05 L/h
- geometric mean Vz/F ([1]; sc): 19.2 to 24.3 L
- geometric mean t1/2 ([1]; sc): 2.45 h
- mean CL/F ([1]; sc): 4.9 to 6.05 L/h
- mean half-life ([1]; sc): 2.20 to 3.21 h
- median tmax ([1]; sc): 2.0 h
- tmax range ([1]; sc): 1.00 to 4.08 h
- t½ ([1]; sc): 2.5 to 3 h
- overall safety and tolerability ([2]; in vivo): safe and well-tolerated
- deaths, serious adverse events, discontinuations due to adverse events ([2]; single SC 1 to 60 mg or IV 3 mg, healthy participants): no deaths, serious adverse events (SAEs) or discontinuations due to adverse events were reported
- AUC0-t [3, 5]: 53.3 µg·h/mL
- Cave, ss [3, 5]: 540 ng/mL
- Non-repro NOAEL (F) dose ([3]; rat, female, continuous SC infusion 96 h): 16.1 mg/kg/day
- AUC0-t [3, 6]: 7.17 µg·h/mL
- Cave, ss [3, 6]: 72 ng/mL
- LOAEL (M) dose ([3]; rat, male, continuous SC infusion 96 h): 1.6 mg/kg/day
- Cave, ss Multiple, Max Dose ([4]; cynomolgus monkey, in vivo): 16.9
- Cave, ss Multiple, Start Dose ([4]; cynomolgus monkey, in vivo): 109
- AUC0-t [4, 7]: 1840 µg·h/mL
- Cave, ss [4, 7]: 18600 ng/mL
- AUC0-t [4, 8]: 148 µg·h/mL
- Cave, ss [4, 8]: 1490 ng/mL
- NOAEL (M + F) dose ([4]; monkey, continuous SC infusion 96 h): 12.6 mg/kg/day
